According to publication PMC7954662 (Science (New York, N.Y.), 2020):

Molecular target: Human GCGR (Q27-F477) with N-terminal FLAG and C-terminal octahistidine tag (human, UniProt P47871 27-477)
Assay: cryo-EM structure

Sequence of Human GCGR (Q27-F477) with N-terminal FLAG and C-terminal octahistidine tag (P47871 27-477): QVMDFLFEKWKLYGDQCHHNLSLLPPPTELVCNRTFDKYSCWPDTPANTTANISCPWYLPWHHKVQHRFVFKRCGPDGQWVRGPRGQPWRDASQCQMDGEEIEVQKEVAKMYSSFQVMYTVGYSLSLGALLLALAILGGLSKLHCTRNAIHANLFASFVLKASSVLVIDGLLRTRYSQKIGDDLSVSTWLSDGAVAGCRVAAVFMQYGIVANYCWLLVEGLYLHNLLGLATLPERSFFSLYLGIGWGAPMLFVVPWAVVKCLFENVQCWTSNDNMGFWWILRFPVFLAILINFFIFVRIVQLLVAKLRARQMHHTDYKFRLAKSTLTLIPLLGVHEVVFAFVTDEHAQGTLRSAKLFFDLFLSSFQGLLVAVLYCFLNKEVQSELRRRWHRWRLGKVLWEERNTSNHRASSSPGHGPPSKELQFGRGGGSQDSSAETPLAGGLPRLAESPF

B1: Gαs (human, short splice variant), subunit of the Gs heterotrimer (natural protein)
chain: MGCLGNSKTEDQRNEEKAQREANKKIEKQLQKDKQVYRATHRLLLLGAGESGKSTIVKQMRILHVNGFNGDSEKATKVQDIKNNLKEAIETIVAAMSNLVPPVELANPENQFRVDYILSVMNVPDFDFPPEFYEHAKALWEDEGVRACYERSNEYQLIDCAQYFLDKIDVIKQADYVPSDQDLLRCRVLTSGIFETKFQVDKVNFHMFDVGGQRDERRKWIQCFNDVTAIIFVVASSSYNMVIREDNQTNRLQEALNLFKSIWNNRWLRTISVILFLNKQDLLAEKVLAGKSKIEDYFPEFARYTTPEDATPEPGEDPRVTRAKYFIRDEFLRISTASGDGRHYCYPHFTCAVDTENIRRVFNDCRDIIQRMHLRQYELL
Q: Does B1 bind?
A: binds
